B1: MYL5 (parent)
chain: DVAGNLDYKALSYVITHGEEKEE
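Also: lentivirally expressed fusions sorted by FACS into six bins by GFP to DsRed ratio, PSI derived from sequencing read proportions per bin multiplied by bin number.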

Variants of: B1
Test: protein stability index of a GFP-peptide fusion (GPS, HEK-293T) (PSI 1-6); higher = more stable
Conditions: c terminus: native
KVAGNLDYKALSYVITHGEEKEE [D1K] showed a protein stability index of 2.34. NVAGNLDYKALSYVITHGEEKEE [D1N] gave a protein stability index of 2.24. For HVAGNLDYKALSYVITHGEEKEE [D1H], the protein stability index was 3.37. DVAGNLDYKALEYVITHGEEKEE [S12E] showed a protein stability index of 2.13. With DVAGNLDYKALAYVITHGEEKEE [S12A] the protein stability index was 1.72. For DVAGNLDYKALIYVITHGEEKEE [S12I], the protein stability index was 2.45. DVAGNLDYKALVYVITHGEEKEE [S12V] showed a protein stability index of 1.73. DVAGNLDYKALSYVITHGEEKEV [E23V] showed a protein stability index of 2.5. For DVAGNLDYKALSYVITHGEEKEQ [E23Q], the protein stability index was 4.85. DVAGNLDYKALSYVITHGEEKEN [E23N] showed a protein stability index of 4.99. For DVAGNLDYKALSYVITHGEEKEH [E23H], the protein stability index was 2.67. Variant DVAGNLDYKALSYVITHGEEKES [E23S] has a protein stability index of 3.81. DVAGNLDYKALSYVITHGEEKEK [E23K] gave a protein stability index of 3.3. In the case of DVAGNLDYKALSYVIMHGEEKEE [T16M], the protein stability index is reported as 1.18. With DVAGNLDYKALSYVIDHGEEKEE [T16D] the protein stability index was 2.01. Variant DVAGNLDYKALSYVIGHGEEKEE [T16G] has a protein stability index of 3.04. With DVAGNLDYKALSYVIVHGEEKEE [T16V] the protein stability index was 2.35. For DVAGNLDYKALSYVIHHGEEKEE [T16H], the protein stability index was 2.48. DVAGNLDYKALSYVIIHGEEKEE [T16I] gave a protein stability index of 2.33. With DVAGNLDYKALSYVISHGEEKEE [T16S] the protein stability index was 1.89. Variant DVAGMLDYKALSYVITHGEEKEE [N5M] has a protein stability index of 1.3. Variant DVAGNLDYKALSYVITRGEEKEE [H17R] has a protein stability index of 2.25. DVAGNLDYKALSYVITDGEEKEE [H17D] gave a protein stability index of 2.89. Work on DVAGNLDYKALSYVITCGEEKEE [H17C] yielded a protein stability index of 1.67. For DVAGNLDYKALSYVITGGEEKEE [H17G], the protein stability index was 2.4. For DVAGNLDYKALSYVITKGEEKEE [H17K], the protein stability index was 1.79. Work on DVAGNLDYKALSYVITNGEEKEE [H17N] yielded a protein stability index of 3.23. Variant DVAGNLDYKALSYVITHGFEKEE [E19F] has a protein stability index of 3.04. Work on DVAGNLDYKALSYVITHGIEKEE [E19I] yielded a protein stability index of 2.19. Work on DVAGNLDYKALSYVITHGDEKEE [E19D] yielded a protein stability index of 2.23. Work on DVAGNLDYKALSYVITHGLEKEE [E19L] yielded a protein stability index of 2.9. DVAGNLDYKRLSYVITHGEEKEE [A10R] gave a protein stability index of 1.74. Work on DVAGNLDYKLLSYVITHGEEKEE [A10L] yielded a protein stability index of 1.97. Variant DVAGNLDYKHLSYVITHGEEKEE [A10H] has a protein stability index of 2. DVAGNLDYKALSYPITHGEEKEE [V14P] gave a protein stability index of 2.48. For DVAGNLDYKALSYMITHGEEKEE [V14M], the protein stability index was 1.24. Work on DVAGNLDYKALSYEITHGEEKEE [V14E] yielded a protein stability index of 2.51. Work on DVAGNGDYKALSYVITHGEEKEE [L6G] yielded a protein stability index of 1.93. Variant DVAGNEDYKALSYVITHGEEKEE [L6E] has a protein stability index of 2.52. DVAGNPDYKALSYVITHGEEKEE [L6P] gave a protein stability index of 2.01. Work on DVAGNTDYKALSYVITHGEEKEE [L6T] yielded a protein stability index of 2.82. For DVAGNSDYKALSYVITHGEEKEE [L6S], the protein stability index was 1.7. Work on DVAGNYDYKALSYVITHGEEKEE [L6Y] yielded a protein stability index of 1.93. DVAGNLDYTALSYVITHGEEKEE [K9T] showed a protein stability index of 2.18. DVAGNLDYCALSYVITHGEEKEE [K9C] gave a protein stability index of 3.09. For DVAGNLDYYALSYVITHGEEKEE [K9Y], the protein stability index was 2.3. In the case of DVAGNLDYKALSYVITHGECKEE [E20C], the protein stability index is reported as 1.47. With DVAGNLDYKALSYVITHGERKEE [E20R] the protein stability index was 2.46. DVAGNLDYKALSYVITHGEPKEE [E20P] showed a protein stability index of 1.3. For DVAGNLDYKALSYVITHGEFKEE [E20F], the protein stability index was 2.78. Variant DVAGNLDYKALSYVITHGEQKEE [E20Q] has a protein stability index of 2.59. In the case of DVAGNLDYKALSYVITHGESKEE [E20S], the protein stability index is reported as 1.26. DVAGNLDYKALSYVITHGEAKEE [E20A] showed a protein stability index of 3.08. For DVAGNLDTKALSYVITHGEEKEE [Y8T], the protein stability index was 1.42. Variant DVAGNLDIKALSYVITHGEEKEE [Y8I] has a protein stability index of 2.11. DVAGNLDYKACSYVITHGEEKEE [L11C] gave a protein stability index of 2.64. For DVAGNLDYKAYSYVITHGEEKEE [L11Y], the protein stability index was 2.08. With DVAGNLDYKAVSYVITHGEEKEE [L11V] the protein stability index was 1.88. With DVAGNLDYKAMSYVITHGEEKEE [L11M] the protein stability index was 1.15. Variant DVAGNLDYKAESYVITHGEEKEE [L11E] has a protein stability index of 2.64. With DVAGNLNYKALSYVITHGEEKEE [D7N] the protein stability index was 1.91. DVAGNLGYKALSYVITHGEEKEE [D7G] showed a protein stability index of 2.02. For DVAGNLKYKALSYVITHGEEKEE [D7K], the protein stability index was 3.18. In the case of DVAGNLTYKALSYVITHGEEKEE [D7T], the protein stability index is reported as 1.57. In the case of DVAGNLQYKALSYVITHGEEKEE [D7Q], the protein stability index is reported as 1.64. For DVAGNLDYKALSYVATHGEEKEE [I15A], the protein stability index was 2.1. In the case of DVAGNLDYKALSYVGTHGEEKEE [I15G], the protein stability index is reported as 2.31. DVAGNLDYKALSYVRTHGEEKEE [I15R] showed a protein stability index of 2.73. In the case of DVAGNLDYKALSYVITHGEEKNE [E22N], the protein stability index is reported as 4.88. DVAGNLDYKALSYVITHGEEKHE [E22H] gave a protein stability index of 4.65. DVAGNLDYKALSYVITHGEEKLE [E22L] gave a protein stability index of 4.25. With DVAGNLDYKALSYVITHGEEKFE [E22F] the protein stability index was 4.43. For DVNGNLDYKALSYVITHGEEKEE [A3N], the protein stability index was 1.54. In the case of DVQGNLDYKALSYVITHGEEKEE [A3Q], the protein stability index is reported as 1.75. DVYGNLDYKALSYVITHGEEKEE [A3Y] gave a protein stability index of 2.15. For DVVGNLDYKALSYVITHGEEKEE [A3V], the protein stability index was 1.97. Work on DVDGNLDYKALSYVITHGEEKEE [A3D] yielded a protein stability index of 1.87. For DVALNLDYKALSYVITHGEEKEE [G4L], the protein stability index was 2.03. DLAGNLDYKALSYVITHGEEKEE [V2L] showed a protein stability index of 1.78. Work on DRAGNLDYKALSYVITHGEEKEE [V2R] yielded a protein stability index of 2.3. For DHAGNLDYKALSYVITHGEEKEE [V2H], the protein stability index was 1.92. With DWAGNLDYKALSYVITHGEEKEE [V2W] the protein stability index was 4.54. In the case of DKAGNLDYKALSYVITHGEEKEE [V2K], the protein stability index is reported as 1.82. DAAGNLDYKALSYVITHGEEKEE [V2A] showed a protein stability index of 1.64. With DTAGNLDYKALSYVITHGEEKEE [V2T] the protein stability index was 2. In the case of DEAGNLDYKALSYVITHGEEKEE [V2E], the protein stability index is reported as 1.35. DNAGNLDYKALSYVITHGEEKEE [V2N] gave a protein stability index of 1.75. With DDAGNLDYKALSYVITHGEEKEE [V2D] the protein stability index was 2.19. With DMAGNLDYKALSYVITHGEEKEE [V2M] the protein stability index was 1.87. DVAGNLDYKALSYVITHDEEKEE [G18D] gave a protein stability index of 2.61. Variant DVAGNLDYKALSYVITHNEEKEE [G18N] has a protein stability index of 2.11. For DVAGNLDYKALSYVITHSEEKEE [G18S], the protein stability index was 1.49. For DVAGNLDYKALSKVITHGEEKEE [Y13K], the protein stability index was 2.46. Variant DVAGNLDYKALSPVITHGEEKEE [Y13P] has a protein stability index of 3.39. In the case of DVAGNLDYKALSAVITHGEEKEE [Y13A], the protein stability index is reported as 2.7. DVAGNLDYKALSEVITHGEEKEE [Y13E] showed a protein stability index of 2.9. In the case of DVAGNLDYKALSMVITHGEEKEE [Y13M], the protein stability index is reported as 2.08.

Reference: the supplement of paper PMC10567573
